The target of data set [1] is T1, Herpetosiphon aurantiacus HaXAL1 tyrosine ammonia lyase (Protein GI 159898407), SEQ ID NO: 2, His-tagged (N-terminal tag SEQ ID NO: 11) (Herpetosiphon aurantiacus, UniProt A9AUJ9).
T1 sequence (A9AUJ9 1-552): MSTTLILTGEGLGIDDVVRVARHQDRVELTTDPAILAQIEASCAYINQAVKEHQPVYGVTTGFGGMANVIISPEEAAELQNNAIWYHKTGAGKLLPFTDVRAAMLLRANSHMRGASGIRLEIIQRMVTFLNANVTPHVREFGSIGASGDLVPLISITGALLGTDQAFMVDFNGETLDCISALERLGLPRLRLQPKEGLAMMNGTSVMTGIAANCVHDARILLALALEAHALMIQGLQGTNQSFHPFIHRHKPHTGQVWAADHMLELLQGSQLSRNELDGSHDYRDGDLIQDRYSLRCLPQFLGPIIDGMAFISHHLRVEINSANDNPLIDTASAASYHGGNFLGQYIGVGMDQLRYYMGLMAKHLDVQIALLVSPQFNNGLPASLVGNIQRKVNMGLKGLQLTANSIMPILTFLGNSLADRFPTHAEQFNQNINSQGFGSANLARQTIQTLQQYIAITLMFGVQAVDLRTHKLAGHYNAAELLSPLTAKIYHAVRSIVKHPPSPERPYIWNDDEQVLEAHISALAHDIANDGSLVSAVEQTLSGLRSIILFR
Description: In vitro kinetics of purified His-tagged HaXAL1 (tyrosine/phenylalanine ammonia lyase activity, absorbance at 315/295 nm). The class given is biochemical. The protocol: (§1) The tyrosine ammonia lyase activity may for instance be determined in accordance to the following method: Enzymatic assays are performed in 200 μL volumes in wells in a UV transparent 96-well plate, by following the increase in absorbance at 315 nm (pHCA) using spectrophotometry or HPLC with UV detection. The reaction mixtures contain 2 μg of purified protein and are initiated by adding 1 mM tyrosine or 6 mM after equilibration to 30° C. The enzymatic activity is calculated as U/g, where U is defined as μmol substrate converted per minute. Negative controls contain no purified protein. Kinetic constants Km and vmax are determined from assays containing 1.56 μM to 200 μM tyrosine. See also Kyndt et al. (2002).
Four of the enzymes were further purified by His-tag purification as follows. A DNA linker (5′ phosphorylated oligonucleotides CBJP559 and CBJP560, Table 5) was inserted in place of the sequence between the NdeI and BgIII site in plasmid pCDFDuet-1. This would result in the addition of the amino acids MAHHHHHHENLYFQ (SEQ ID NO: 11) to the N-terminal end of the polypeptides. […]
(§2) Enzymatic assays were performed in 200 μL volumes in wells in a UV transparent 96-well plate, by following the increase in absorbance at 315 nm (pHCA) or 295 nm (CA). […] The enzymatic activity was calculated as U/g, where U is defined as μmol substrate converted per minute.

Substrate in data set [2]: N[C@@H](Cc1ccccc1)C(=O)O
Nature of the data set: In vitro kinetics of purified His-tagged FjXAL (tyrosine/phenylalanine ammonia lyase activity, absorbance at 315/295 nm). It is filed as biochemical, Flavobacterium johnsoniae. Conditions: other: FjXAL, 30° C, 1.56 μM to 200 μM tyrosine or 193 μM to 25 mM phenylalanine, pH 7.5. The protocol:
as §1
(§3) Four of the enzymes were further purified by His-tag purification as follows. A DNA linker (5′ phosphorylated oligonucleotides CBJP559 and CBJP560, Table 5) was inserted in place of the sequence between the NdeI and BgIII site in plasmid pCDFDuet-1. This would result in the addition of the amino acids MAHHHHHHENLYFQ (SEQ ID NO: 11) to the N-terminal end of the polypeptides. The resulting plasmid was amplified with primers CBJP575 and CBJP576 (table 5) and the genes were amplified and combined using the Gibson reaction (New England Biolabs). The PCR amplification used the same reverse primers as in example 1, but the forward primers matching the His-tag site of the linker (Table 5). Plasmids carrying the genes (e.g. FjXAL, FIG. 4) were transformed into electrocompetent E. coli BL21(DE3)pLysS cells (Life Technologies) and selected on LB plates containing 50 ug/mL streptomycin.
(§4) Strains expressing His-tagged versions of the enzymes were grown in LB media overnight at 37° C. and diluted into fresh LB media with 1 mM IPTG and growth was propagated overnight (approximately 18 h) at 30° C. Cells were harvested by centrifugation at 8000 rpm for 8 minutes, and disrupted by shearing into a buffer (50 mM Tris-HCl, 10 mM imidazole, 500 mM NaCl, 10% glycerol, pH 7.5). The homogenate was clarified by centrifugation at 10000 g for 10 min at 4° C., and the supernatant was loaded onto Ni2+-NTA resin column on an Äkta Pure system connected to a F9-C fraction collector (GE). Finally the fractions containing the purified polypeptide was dialyzed overnight against a buffer containing 50 mM Tris-HCl pH 7.5, 150 mM NaCl and 10% glycerol, flash-frozen in liquid nitrogen and stored at −80° C.
as §2

Substrate in data set [3]: N[C@@H](Cc1ccc(O)cc1)C(=O)O
The description is as above. The class given is biochemical, Flavobacterium johnsoniae. The conditions noted are these: other: FjXAL, 30° C, 1.56 μM to 200 μM tyrosine or 193 μM to 25 mM phenylalanine, pH 7.5. As for the experimental part:
as §1, §3, §4, §2

The test system of data set [4] is E. coli BL21(DE3)pLysS cells. Description: Specific production of pHCA and CA by E. coli expressing TAL/PAL enzymes. The class given is cell-based, Escherichia coli. Conditions: 24 h after supplementation, +/- standard deviation. The protocol:
Plasmids carrying the genes were transformed into electrocompetent E. coli BL21(DE3)pLysS cells (Life Technologies) and selected on LBplates containing 50 ug/mL streptomycin. The strains were grown in M9 minimal media containing glucose as a carbon source, and expression was induced by adding 1 mM IPTG at an optical density at 600 nm of 0.6. After three hours of growth at 30° C. the cultures were supplemented with 2 mM tyrosine, phenylalanine or histidine. After further 24 hours, samples were withdrawn for determination of the optical density at 600 nm and for the isolation of the supernatant.
The concentration of pHCA and CA in the supernatant was quantified by high performance (HPLC) and compared to chemical standards. HPLC was done on a Thermo setup using a HS-F5 column and mobile phases: 5 mM ammonium formate pH 4.0 (A) and acetonitrile (B) at 1.5 mL min-1, using a gradient elution starting at 5% B. From 0.5 min after injection to 7 min, the fraction of B increased linearly from 5% to 60%, and between 9.5 min and 9.6 the fraction of B decreased back to 5%, and remaining there until 12m pHCA and CA were quantified by measuring absorbance at 333 nm and 277 nm, respectively. The production was tested without addition of precursors or the addition of either phenylalanine or tyrosine to the growth medium.
The specific production was calculated as micromolar (μM) concentration per unit of optical density of the culture at 600 nm, and standard deviations were calculated based on triplicate experiments. HaXAL1, HaXAL2 and FjXAL are the most specific enzymes and those that reach the highest yields.

For `N[C@@H](Cc1ccc(O)cc1)C(=O)O` [Tyr, tyrosine], the Kcat in data set [1] (30° C, 1.56 μM to 200 μM tyrosine or 193 μM to 25 mM phenylalanine) was 0.0517 s⁻¹. The TAL/PAL in data set [1] (ratio of Kcat/Km for Tyr over Phe) was 540.

B1: Flavobacterium johnsoniae FjXAL tyrosine ammonia lyase (Protein GI 146298870), SEQ ID NO: 1, His-tagged (N-terminal tag SEQ ID NO: 11) (Flavobacterium … (protein)
chain: MNTINEYLSLEEFEAIIFGNQKVTISDVVVNRVNESFNFLKEFSGNKVIYGVNTGFGPMAQYRIKESDQIQLQYNLIRSHSSGTGKPLSPVCAKAAILARLNTLSLGNSGVHPSVINLMSELINKDITPLIFEHGGVGASGDLVQLSHLALVLIGEGEVFYKGERRPTPEVFEIEGLKPIQVEIREGLALINGTSVMTGIGVVNVYHAKKLLDWSLKSSCAINELVQAYDDHFSAELNQTKRHKGQQEIALKMRQNLSDSTLIRKREDHLYSGENTEEIFKEKVQEYYSLRCVPQILGPVLETINNVASILEDEFNSANDNPIIDVKNQHVYHGGNFHGDYISLEMDKLKIVITKLTMLAERQLNYLLNSKINELLPPFVNLGTLGFNFGMQGVQFTATSTTAESQMLSNPMYVHSIPNNNDNQDIVSMGTNSAVITSKVIENAFEVLAIEMITIVQAIDYLGQKDKISSVSKKWYDEIRNIIPTFKEDQVMYPFVQKVKDHLINN
On to B1, for which, in data set [2], the Michaelis constant (Km) (in general, the concentration of substrate that gives half-maximal velocity) came to 6.6 mM; the kcat (commonly the maximal rate divided by the concentration of active sites) was found to be 0.00817 s⁻¹; the kcat/Km (in general, the second-order rate constant that governs catalysis at low substrate concentration) came out at 1.23 M⁻¹ s⁻¹. Besides, the Km in data set [3] was found to be 0.0057 mM. Besides, in data set [4] (M9 + His (2 mM)), the “Specific production of CA” value is 0 ± 0 μM OD600-1 and the “Specific production of pHCA” value was found to be 91 ± 20 μM OD600-1. In addition, in data set [4] (M9 + Phe (2 mM)), the “Specific production of CA” value turned out to be 0.5 ± 0.4 μM OD600-1 and the “Specific production of pHCA” value is on record as 76 ± 29 μM OD600-1. Besides, in data set [4] (M9 + Tyr (2 mM)), the “Specific production of CA” value is listed as 0 ± 0 μM OD600-1 and the “Specific production of pHCA” value is given as 440 ± 100 μM OD600-1.

Source of the values: US11306331B2, “Processes for the production of hydroxycinnamic acids using polypeptides having tyrosine ammonia lyase activity” (CysBio ApS, priority 2014, dated 2022).
